{
  "source": "patent US20250066490A1",
  "about": "“ANTI-CD70 ANTIBODIES, CONJUGATES THEREOF AND METHODS OF USING THE SAME” (ProfoundBio US Co., priority 2021, published 2025)",
  "key": {"[1]": {"tested_on": "786-O, Caki-1, U251 and DBTRG-05MG cells", "experiment": "Antibody binding by flow cytometry, statements across all four tumor cell lines", "parameters": "species or system human", "details": "range over the four cell lines", "protocol": "The lead antibodies were tested for binding to renal carcinoma cells and glioblastoma cells expressing CD70 on the cell surface by flow cytometry. Cell lines 786-O (ATCC® CRL-1932™, provided by COBIOER), Caki-1 (ATCC® HTB-46™, provided by COBIOER), U251 and DBTRG-05MG (ATCC® CRL-2020™, provided by COBIOER) were each tested for antibody binding. 786-O cells were cultured with RPMI 1640 medium (Gibco, Cat #11875093) containing of 10% FBS (Gibco, Cat #10099141) while Caki-1 cells were cultured with McCoy's 5a Modified medium (Gibco, Cat #16600082) containing 10% FBS. U251 cells were cultured with MEM medium containing of 10% FBS and 1% NEAA+1 mM sodium pyruvate. DBTRG-05MG cells were cultured with DMEM medium (Gibco, Cat #C11995500BT) containing of 10% FBS. Each of the lead antibodies and the controls were incubated for 30 mins with the different cell lines (3×10^5 cells per well) in 0.2 ml FACS buffer (1×PBS with 0.1% BSA) at 4° C. Then, the cells were pelleted, washed, and incubated at 4° C. for 30 mins with 100 μl of 1:200 diluted PE-conjugated anti human Fc (Abcam, Ab98596) in FACS buffer. The cells were pelleted again, washed with PBS, resuspended in FACS buffer and analyzed by flow cytometer (Beckman, CytoFLEX)."}, "[2]": {"tested_on": "CD70-negative cell line, MCF-7", "experiment": "2E7 binding by flow cytometry, MCF-7", "details": "FIG. 12", "protocol": "Binding activity of 2E7 or the isotype control with a target cell line (Raji) or a cell line (MCF-7) that has negligible level of CD70 expression were evaluated by flow cytometry (Beckman, Cytoflex). 3×10^5 cells per well were seeded on a 96-well V-bottomed plate and incubated with 100 μl of 2E7 in serial dilutions. After 30 min incubation at 4° C., cells were washed twice with PBS, stained with 100 μl of 1:200 diluted PE-conjugated anti-human Fc in FACS buffer (1×PBS containing 1% BSA), then incubated at 4° C. for 30 min. Cells were finally washed two times with PBS and analyzed by flow cytometric analysis."}},
  "data": [
    {"molecule": "2E7: anti-CD70 antibody clone, VH SEQ 7 and VL SEQ 8; tested as scFv and full human IgG1/kappa (antibody, V domains shown, Synthetic 2E7 VH amino acid sequence; Synthetic 2E7 VL amino acid sequence, tested as scFv and full human IgG1/kappa) VH: QVQLQESGPGLVKPSETLSLTCTVSGGSVSSDYYYWSWIRQPPGKGLEWLGYIYYSGSTNYNPSLKSRVTISVDTSKNQFSLKLRSVTTADTAVYYCARGDGDFLGVCFDYWGQGTLVTVSS VL: EIVLTQSPATLSLSPGERATLSCRASQSVSSYLAWYQQKPGQAPRLLIFDASNRATGIPARFSGSGSGTDFTLTISSLEPEDFAVYYCQQRSNWPLTFGGGTKVEIK", "values": [
      {"measurement": "EC50 relative to that of antibody 69A7", "setting": "[1]", "result": "1.8˜3.5 times"},
      {"measurement": "binding to MCF-7", "setting": "[2]", "result": "no binding"}
    ]}
  ]
}
